Experimental data from patent US20160185836A1 (published 2016).

T1: activin A (UniProt P08476 311-426)
T1 sequence (looked up): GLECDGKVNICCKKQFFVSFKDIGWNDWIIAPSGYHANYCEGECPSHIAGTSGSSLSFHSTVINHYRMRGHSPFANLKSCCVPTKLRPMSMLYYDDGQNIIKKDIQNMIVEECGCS

T2: GDF11 (UniProt O95390 299-407)
T2 sequence (looked up): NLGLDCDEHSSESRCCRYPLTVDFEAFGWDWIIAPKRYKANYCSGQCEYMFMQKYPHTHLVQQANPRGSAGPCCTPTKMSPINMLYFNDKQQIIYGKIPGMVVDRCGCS

B1: FST(315)-IgG2 (Fc fusion)
chain: GNCWLRQAKNGRCQVLYKTELSKEECCSTGRLSTSWTEEDVNDNTLFKWMIFNGGAPNCIPCKETCENVDCGPGKKCRMNKKNKPRCVCAPDCSNITWKGPVCGLDGKTYRNECALLKARCKEQPELEVQYQGRCKKTCRDVFCPGSSTCVVDQTNNAYCVTCNRICPEPASSEQYLCGNDGVTYSSACHLRKATCLLGRSIGLAYEGKCIKAKSCEDIQCTGGKKCLWDFKVGRGRCSLCDELCPDSKSDEPVCASDNATYASECAMKEAACSSGVLLEVKHSGSCNSISEDTEEEEEDEDQDYSFPISSILEWTGGGVECPPCPAPPVAGPSVFLFPPKPKDTLMISRTPEVTCVVVDVSHEDPEVQFNWYVDGVEVHNAKTKPREEQFNSTFRVVSVLTVVHQDWLNGKEYKCKVSNKGLPAPIEKTISKTKGQPREPQVYTLPPSREEMTKNQVSLTCLVKGFYPSDIAVEWESNGQPENNYKTTPPMLDSDGSFFLYSKLTVDKSRWQQGNVFSCSVMHEALHNHYTQKSLSLSPGK
notes: Expressed with the follistatin leader in HEK-293 or CHO cells; also called mature FST(315)-IgG2
B2: FST(288)-IgG2 (Fc fusion)
chain: GNCWLRQAKNGRCQVLYKTELSKEECCSTGRLSTSWTEEDVNDNTLFKWMIFNGGAPNCIPCKETCENVDCGPGKKCRMNKKNKPRCVCAPDCSNITWKGPVCGLDGKTYRNECALLKARCKEQPELEVQYQGRCKKTCRDVFCPGSSTCVVDQTNNAYCVTCNRICPEPASSEQYLCGNDGVTYSSACHLRKATCLLGRSIGLAYEGKCIKAKSCEDIQCTGGKKCLWDFKVGRGRCSLCDELCPDSKSDEPVCASDNATYASECAMKEAACSSGVLLEVKHSGSCNTGGGVECPPCPAPPVAGPSVFLFPPKPKDTLMISRTPEVTCVVVDVSHEDPEVQFNWYVDGVEVHNAKTKPREEQFNSTFRVVSVLTVVHQDWLNGKEYKCKVSNKGLPAPIEKTISKTKGQPREPQVYTLPPSREEMTKNQVSLTCLVKGFYPSDIAVEWESNGQPENNYKTTPPMLDSDGSFFLYSKLTVDKSRWQQGNVFSCSVMHEALHNHYTQKSLSLSPGK
notes: Expressed with the follistatin leader in HEK-293 or CHO cells; also called mature FST(288)-IgG2
B3: FST(291)-IgG2 (Fc fusion)
chain: GNCWLRQAKNGRCQVLYKTELSKEECCSTGRLSTSWTEEDVNDNTLFKWMIFNGGAPNCIPCKETCENVDCGPGKKCRMNKKNKPRCVCAPDCSNITWKGPVCGLDGKTYRNECALLKARCKEQPELEVQYQGRCKKTCRDVFCPGSSTCVVDQTNNAYCVTCNRICPEPASSEQYLCGNDGVTYSSACHLRKATCLLGRSIGLAYEGKCIKAKSCEDIQCTGGKKCLWDFKVGRGRCSLCDELCPDSKSDEPVCASDNATYASECAMKEAACSSGVLLEVKHSGSCNSISTGGGVECPPCPAPPVAGPSVFLFPPKPKDTLMISRTPEVTCVVVDVSHEDPEVQFNWYVDGVEVHNAKTKPREEQFNSTFRVVSVLTVVHQDWLNGKEYKCKVSNKGLPAPIEKTISKTKGQPREPQVYTLPPSREEMTKNQVSLTCLVKGFYPSDIAVEWESNGQPENNYKTTPPMLDSDGSFFLYSKLTVDKSRWQQGNVFSCSVMHEALHNHYTQKSLSLSPGK
notes: Expressed with the follistatin leader in HEK-293 or CHO cells; also called mature FST(291)-IgG2
B4: FST(284)-IgG2 (Fc fusion)
chain: GNCWLRQAKNGRCQVLYKTELSKEECCSTGRLSTSWTEEDVNDNTLFKWMIFNGGAPNCIPCKETCENVDCGPGKKCRMNKKNKPRCVCAPDCSNITWKGPVCGLDGKTYRNECALLKARCKEQPELEVQYQGRCKKTCRDVFCPGSSTCVVDQTNNAYCVTCNRICPEPASSEQYLCGNDGVTYSSACHLRKATCLLGRSIGLAYEGKCIKAKSCEDIQCTGGKKCLWDFKVGRGRCSLCDELCPDSKSDEPVCASDNATYASECAMKEAACSSGVLLEVKHSTGGGVECPPCPAPPVAGPSVFLFPPKPKDTLMISRTPEVTCVVVDVSHEDPEVQFNWYVDGVEVHNAKTKPREEQFNSTFRVVSVLTVVHQDWLNGKEYKCKVSNKGLPAPIEKTISKTKGQPREPQVYTLPPSREEMTKNQVSLTCLVKGFYPSDIAVEWESNGQPENNYKTTPPMLDSDGSFFLYSKLTVDKSRWQQGNVFSCSVMHEALHNHYTQKSLSLSPGK
B5: FST(303)-IgG2 (Fc fusion)
chain: GNCWLRQAKNGRCQVLYKTELSKEECCSTGRLSTSWTEEDVNDNTLFKWMIFNGGAPNCIPCKETCENVDCGPGKKCRMNKKNKPRCVCAPDCSNITWKGPVCGLDGKTYRNECALLKARCKEQPELEVQYQGRCKKTCRDVFCPGSSTCVVDQTNNAYCVTCNRICPEPASSEQYLCGNDGVTYSSACHLRKATCLLGRSIGLAYEGKCIKAKSCEDIQCTGGKKCLWDFKVGRGRCSLCDELCPDSKSDEPVCASDNATYASECAMKEAACSSGVLLEVKHSGSCNSISEDTEEEEEDEDQTGGGVECPPCPAPPVAGPSVFLFPPKPKDTLMISRTPEVTCVVVDVSHEDPEVQFNWYVDGVEVHNAKTKPREEQFNSTFRVVSVLTVVHQDWLNGKEYKCKVSNKGLPAPIEKTISKTKGQPREPQVYTLPPSREEMTKNQVSLTCLVKGFYPSDIAVEWESNGQPENNYKTTPPMLDSDGSFFLYSKLTVDKSRWQQGNVFSCSVMHEALHNHYTQKSLSLSPGK
B6: FST(278)-IgG2 (Fc fusion)
chain: GNCWLRQAKNGRCQVLYKTELSKEECCSTGRLSTSWTEEDVNDNTLFKWMIFNGGAPNCIPCKETCENVDCGPGKKCRMNKKNKPRCVCAPDCSNITWKGPVCGLDGKTYRNECALLKARCKEQPELEVQYQGRCKKTCRDVFCPGSSTCVVDQTNNAYCVTCNRICPEPASSEQYLCGNDGVTYSSACHLRKATCLLGRSIGLAYEGKCIKAKSCEDIQCTGGKKCLWDFKVGRGRCSLCDELCPDSKSDEPVCASDNATYASECAMKEAACSSGVLTGGGVECPPCPAPPVAGPSVFLFPPKPKDTLMISRTPEVTCVVVDVSHEDPEVQFNWYVDGVEVHNAKTKPREEQFNSTFRVVSVLTVVHQDWLNGKEYKCKVSNKGLPAPIEKTISKTKGQPREPQVYTLPPSREEMTKNQVSLTCLVKGFYPSDIAVEWESNGQPENNYKTTPPMLDSDGSFFLYSKLTVDKSRWQQGNVFSCSVMHEALHNHYTQKSLSLSPGK

The binders below were run against T1, activin A (assay: binding assay, method not stated).

| Kd [nM] | Binder |
| --- | --- |
| < 0.01 | B1 |
| < 0.01 | B2 |
| < 0.01 | B3 |

Each binder was assayed against T2, GDF11 (assay: binding assay, method not stated).

| Kd [nM] | Binder |
| --- | --- |
| < 0.01 | B1 |
| < 0.01 | B2 |
| < 0.01 | B3 |

These binders were tested against T1, activin A (assay: cell-based or functional assay).

| IC50 (ng/ml), A-204 Reporter Gene Assay [ng/mL] | Binder |
| --- | --- |
| 369 | B4 |
| 2 | B5 |
| 10 | B1 |
| 521 | B6 |
| 30 | B2 |
| 20 | B3 |

Each binder was assayed against T2, GDF11 (assay: cell-based or functional assay).

| IC50 (ng/ml), A-204 Reporter Gene Assay [ng/mL] | Binder |
| --- | --- |
| 123 | B4 |
| 18 | B5 |
| 15 | B1 |
| 91 | B6 |
| 41 | B2 |
| 26 | B3 |
